Test results: patent US20200129634A1
Each block holds one binder with its values, some of them ahead of it. Non-standard residues stand in square brackets, D forms with d. No end group written: not given here.

Tests used:
[1] = molecular target: D85 (D84K3OrnK7OrnK11OrnK18OrnK22OrnK26Orn); experiment: RP-HPLC temperature profiling (0.25% B/min gradient), Mix 1, self-association relative to RC
human serum proteins = experiment: cell-based or functional assay
D33 (D37(A13K/A16K)) = experiment: RP-HPLC temperature profiling 5-77 C, pH 2, self-association (dimerization/oligomerization) relative to random coil control RC
[2] = molecular target: D87 (D84K3ArgK7ArgK11ArgK18ArgK22ArgK26Arg); experiment: RP-HPLC temperature profiling (0.25% B/min gradient), Mix 1, self-association relative to RC
D101 (D33(A1K)K26S) = experiment: RP-HPLC temperature profiling (0.25% B/min gradient), Mix 2, self-association relative to RC
D37 [3] = experiment: RP-HPLC temperature profiling 5-77 C, pH 2, self-association (dimerization/oligomerization) relative to random coil control RC
D37 [4] = experiment: RP-HPLC temperature profiling (0.25% B/min gradient), control AMP, self-association relative to RC
D38 = experiment: RP-HPLC temperature profiling 5-77 C, pH 2, self-association (dimerization/oligomerization) relative to random coil control RC
D40 = experiment: as above
D39 = experiment: as above
[5] = molecular target: D106 (D88K3DprK7DprK14DprK15DprK22DprK26Dpr); experiment: RP-HPLC temperature profiling (0.25% B/min gradient), Mix 4, self-association relative to RC
D103 (D34(A1K)K26S) = experiment: RP-HPLC temperature profiling (0.25% B/min gradient), Mix 2, self-association relative to RC
[6] = molecular target: D105 (D84K3DprK7DprK11DprK18DprK22DprK26Dpr); experiment: RP-HPLC temperature profiling (0.25% B/min gradient), Mix 1, self-association relative to RC
[7] = molecular target: D105 (D84K3DprK7DprK11DprK18DprK22DprK26Dpr); experiment: RP-HPLC temperature profiling (0.25% B/min gradient), Mix 4, self-association relative to RC
D88 (D34(A1K)) = experiment: RP-HPLC temperature profiling (0.25% B/min gradient), Mix 2, self-association relative to RC

- PA (self-association parameter) [1]: 2.9 min
B1: D85 (D84K3OrnK7OrnK11OrnK18OrnK22OrnK26Orn) (peptide)
peptide: Ac-KLXSLLXTLSXAKAAKLXTLLXALSX-NH2
modifications: not fully specified (some residues); printed as Ac-KL(Orn)SLL(Orn)TLS(Orn)AKAAKL(Orn)TLL(Orn)ALS(Orn)-amide

- MIC against A. baumannii strain 649 in 25% human serum (no serum: 0.1) (human serum proteins): 0.7 µM
- PA (self-association parameter) (D33 (D37(A13K/A16K))): 5.3 min
B2: D33 (D37(A13K/A16K)) (peptide)
peptide: [dA][dL][dK][dS][dL][dL][dK][dT][dL][dS][dK][dA][dK][dA][dA][dK][dL][dK][dT][dL][dL][dK][dA][dL][dS][dK]-NH2
modifications: N-terminus assumed
SMILES: CC(C)C[C@@H](NC(=O)[C@@H](C)N)C(=O)N[C@H](CCCCN)C(=O)N[C@H](CO)C(=O)N[C@H](CC(C)C)C(=O)N[C@H](CC(C)C)C(=O)N[C@H](CCCCN)C(=O)N[C@@H](C(=O)N[C@H](CC(C)C)C(=O)N[C@H](CO)C(=O)N[C@H](CCCCN)C(=O)N[C@H](C)C(=O)N[C@H](CCCCN)C(=O)N[C@H](C)C(=O)N[C@H](C)C(=O)N[C@H](CCCCN)C(=O)N[C@H](CC(C)C)C(=O)N[C@H](CCCCN)C(=O)N[C@@H](C(=O)N[C@H](CC(C)C)C(=O)N[C@H](CC(C)C)C(=O)N[C@H](CCCCN)C(=O)N[C@H](C)C(=O)N[C@H](CC(C)C)C(=O)N[C@H](CO)C(=O)N[C@H](CCCCN)C(N)=O)[C@H](C)O)[C@H](C)O

- PA (self-association parameter) [2]: 3.4 min
B3: D87 (D84K3ArgK7ArgK11ArgK18ArgK22ArgK26Arg) (peptide)
peptide: Ac-KLRSLLRTLSRAKAAKLRTLLRALSR-NH2
modifications: not fully specified; printed as Ac-KL(Arg)SLL(Arg)TLS(Arg)AKAAKL(Arg)TLL(Arg)ALs(Arg)-amide; also: D-enantiomeric residues, extent not given here

- PA (self-association parameter) (D101 (D33(A1K)K26S)): 7.2 min
B4: D101 (D33(A1K)K26S) (peptide)
peptide: Ac-KLKSLLKTLSKAKAAKLKTLLKALSS-NH2
modifications: not fully specified; also: D-enantiomeric residues, extent not given here

- MIC against A. baumannii strain 649 in 25% human serum (no serum: 2.9) (human serum proteins): > 92.8 µM
- PA (self-association parameter) (D37 [3]): 18.5 min
- PA (self-association parameter) (D37 [4]): 37 min
B5: D37 (peptide)
peptide: [dA][dL][dK][dS][dL][dL][dK][dT][dL][dS][dK][dA][dA][dA][dA][dA][dL][dK][dT][dL][dL][dK][dA][dL][dS][dK]-NH2
modifications: N-terminus assumed
SMILES: CC(C)C[C@@H](NC(=O)[C@@H](C)N)C(=O)N[C@H](CCCCN)C(=O)N[C@H](CO)C(=O)N[C@H](CC(C)C)C(=O)N[C@H](CC(C)C)C(=O)N[C@H](CCCCN)C(=O)N[C@@H](C(=O)N[C@H](CC(C)C)C(=O)N[C@H](CO)C(=O)N[C@H](CCCCN)C(=O)N[C@H](C)C(=O)N[C@H](C)C(=O)N[C@H](C)C(=O)N[C@H](C)C(=O)N[C@H](C)C(=O)N[C@H](CC(C)C)C(=O)N[C@H](CCCCN)C(=O)N[C@@H](C(=O)N[C@H](CC(C)C)C(=O)N[C@H](CC(C)C)C(=O)N[C@H](CCCCN)C(=O)N[C@H](C)C(=O)N[C@H](CC(C)C)C(=O)N[C@H](CO)C(=O)N[C@H](CCCCN)C(N)=O)[C@H](C)O)[C@H](C)O

- MIC against A. baumannii strain 649 in 25% human serum (no serum: 0.7) (human serum proteins): > 92.8 µM
- PA (self-association parameter) (D38): 19.5 min
B6: D38 (peptide)
peptide: [dA][dL][dK][dS][dL][dL][dK][dT][dL][dS][dA][dA][dA][dK][dK][dA][dL][dA][dT][dL][dL][dK][dA][dL][dS][dK]-NH2
modifications: N-terminus assumed
SMILES: CC(C)C[C@@H](NC(=O)[C@@H](C)N)C(=O)N[C@H](CCCCN)C(=O)N[C@H](CO)C(=O)N[C@H](CC(C)C)C(=O)N[C@H](CC(C)C)C(=O)N[C@H](CCCCN)C(=O)N[C@@H](C(=O)N[C@H](CC(C)C)C(=O)N[C@H](CO)C(=O)N[C@H](C)C(=O)N[C@H](C)C(=O)N[C@H](C)C(=O)N[C@H](CCCCN)C(=O)N[C@H](CCCCN)C(=O)N[C@H](C)C(=O)N[C@H](CC(C)C)C(=O)N[C@H](C)C(=O)N[C@@H](C(=O)N[C@H](CC(C)C)C(=O)N[C@H](CC(C)C)C(=O)N[C@H](CCCCN)C(=O)N[C@H](C)C(=O)N[C@H](CC(C)C)C(=O)N[C@H](CO)C(=O)N[C@H](CCCCN)C(N)=O)[C@H](C)O)[C@H](C)O

- MIC against A. baumannii strain 649 in 25% human serum (no serum: 2.9) (human serum proteins): > 92.8 µM
- PA (self-association parameter) (D40): 18.7 min
B7: D40 (peptide)
peptide: [dA][dL][dA][dS][dL][dL][dK][dT][dL][dS][dK][dA][dA][dK][dK][dA][dL][dK][dT][dL][dL][dK][dA][dL][dS][dA]-NH2
modifications: N-terminus assumed
SMILES: CC(C)C[C@@H](NC(=O)[C@@H](C)N)C(=O)N[C@H](C)C(=O)N[C@H](CO)C(=O)N[C@H](CC(C)C)C(=O)N[C@H](CC(C)C)C(=O)N[C@H](CCCCN)C(=O)N[C@@H](C(=O)N[C@H](CC(C)C)C(=O)N[C@H](CO)C(=O)N[C@H](CCCCN)C(=O)N[C@H](C)C(=O)N[C@H](C)C(=O)N[C@H](CCCCN)C(=O)N[C@H](CCCCN)C(=O)N[C@H](C)C(=O)N[C@H](CC(C)C)C(=O)N[C@H](CCCCN)C(=O)N[C@@H](C(=O)N[C@H](CC(C)C)C(=O)N[C@H](CC(C)C)C(=O)N[C@H](CCCCN)C(=O)N[C@H](C)C(=O)N[C@H](CC(C)C)C(=O)N[C@H](CO)C(=O)N[C@H](C)C(N)=O)[C@H](C)O)[C@H](C)O

- MIC against A. baumannii strain 649 in 25% human serum (no serum: 1.4) (human serum proteins): > 92.8 µM
- PA (self-association parameter) (D39): 18.5 min
B8: D39 (peptide)
peptide: [dA][dL][dK][dS][dL][dL][dA][dT][dL][dS][dK][dA][dA][dK][dK][dA][dL][dK][dT][dL][dL][dA][dA][dL][dS][dK]-NH2
modifications: N-terminus assumed
SMILES: CC(C)C[C@@H](NC(=O)[C@@H](C)N)C(=O)N[C@H](CCCCN)C(=O)N[C@H](CO)C(=O)N[C@H](CC(C)C)C(=O)N[C@H](CC(C)C)C(=O)N[C@H](C)C(=O)N[C@@H](C(=O)N[C@H](CC(C)C)C(=O)N[C@H](CO)C(=O)N[C@H](CCCCN)C(=O)N[C@H](C)C(=O)N[C@H](C)C(=O)N[C@H](CCCCN)C(=O)N[C@H](CCCCN)C(=O)N[C@H](C)C(=O)N[C@H](CC(C)C)C(=O)N[C@H](CCCCN)C(=O)N[C@@H](C(=O)N[C@H](CC(C)C)C(=O)N[C@H](CC(C)C)C(=O)N[C@H](C)C(=O)N[C@H](C)C(=O)N[C@H](CC(C)C)C(=O)N[C@H](CO)C(=O)N[C@H](CCCCN)C(N)=O)[C@H](C)O)[C@H](C)O

- PA (self-association parameter) [5]: 2.5 min
B9: D106 (D88K3DprK7DprK14DprK15DprK22DprK26Dpr) (peptide)
peptide: Ac-KLXSLLXTLSAAKXXKLATLLXALSX-NH2
modifications: not fully specified (some residues); printed as Ac-KL(Dpr)SLL(Dpr)TLSAAK(Dpr)(Dpr)KLATLL(Dpr)ALs(Dpr)-amide

- PA (self-association parameter) (D103 (D34(A1K)K26S)): 7.2 min
B10: D103 (D34(A1K)K26S) (peptide)
peptide: Ac-KLKSLLKTLSAAKKKKLATLLKALSS-NH2
modifications: not fully specified; also: D-enantiomeric residues, extent not given here

- PA (self-association parameter) [6]: 2.8 min
- PA (self-association parameter) [7]: 2.8 min
B11: D105 (D84K3DprK7DprK11DprK18DprK22DprK26Dpr) (peptide)
peptide: Ac-KLXSLLXTLSXAKAAKLXTLLXALSX-NH2
modifications: not fully specified (some residues); printed as Ac-KL(Dpr)SLL(Dpr)TLS(Dpr)AKAAKL(Dpr)TLL(Dpr)ALS(Dpr)-amide

- PA (self-association parameter) (D88 (D34(A1K))): 6.9 min
B12: D88 (D34(A1K)) (peptide)
peptide: Ac-KLKSLLKTLSAAKKKKLATLLKALSK-NH2
modifications: not fully specified; printed as Ac-KL(Lys)SLL(Lys)TLSAAK(Lys)(Lys)KLATLL(Lys)ALS(Lys)-amide; also: D-enantiomeric residues, extent not given here
